Source: patent US20260193323

Experiments:
LEKTI domains 10-15 = biological target: T1, LEKTI domains 10-15
T1 chain: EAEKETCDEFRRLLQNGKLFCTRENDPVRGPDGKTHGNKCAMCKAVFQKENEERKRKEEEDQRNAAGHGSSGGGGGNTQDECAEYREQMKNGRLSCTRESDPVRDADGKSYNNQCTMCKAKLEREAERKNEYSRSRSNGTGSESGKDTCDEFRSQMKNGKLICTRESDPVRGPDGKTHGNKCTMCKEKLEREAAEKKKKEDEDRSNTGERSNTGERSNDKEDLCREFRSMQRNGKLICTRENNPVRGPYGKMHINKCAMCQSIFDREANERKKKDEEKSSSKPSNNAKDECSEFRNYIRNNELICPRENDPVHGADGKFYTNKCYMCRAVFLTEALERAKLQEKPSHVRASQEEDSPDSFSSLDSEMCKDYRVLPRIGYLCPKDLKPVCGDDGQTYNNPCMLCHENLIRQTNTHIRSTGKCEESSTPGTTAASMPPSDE

[1] = biological target: T2, recombinantly produced LEKTI Domain 6
T2 chain: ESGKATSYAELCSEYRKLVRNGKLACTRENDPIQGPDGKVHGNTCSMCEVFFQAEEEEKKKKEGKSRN

B1: KLK7 (protein)
chain: IIDGAPCARGSHPWQVALLSGNQLHCGGVLVNERWVLTAAHCKMNEYTVHLGSDTLGDRRAQRIKASKSFRHPGYSTQTHVNDLMLVKLNSQARLSSMVKKVRLPSRCEPPGTTCTVSGWGTTTSPDVTFPSDLMCVDVKLISPQDCTKVYKDLLENSMLCAGIPDSKKNACNGDSGGPLVCRGTLQGLVSWGTFPCGQPNDPGVYTQVCKFTKWINDTMKKHR
Question: What does the source list for B1?
Answer: KLK7 activity (Suc-Arg-Pro-Tyr-p-Nitro-Anilide substrate, 405 nm) (LEKTI domains 10-15): recombinantly produced LEKTI Domain 6 inhibits KLK7 in vitro about as well as LEKTI domains 10-15; KLK7 activity (Suc-Arg-Pro-Tyr-p-Nitro-Anilide substrate, 405 nm) [1]: recombinantly produced LEKTI Domain 6 inhibits KLK7 in vitro about as well as LEKTI domains 10-15
